Assay results from US20090099080A1 (UNIVERSITY OF MASSACHUSETTS, published 2009).

Biological target: T1, GST (UniProt P08515 1-218 = GST)
T1 construct: Control for the GST fusion baits; also called glutathione S-transferase (control)
Assay: GST pull down of recombinant CypD, CypD immunoblot

T1 sequence (P08515 whole entry, the tested form may be a part): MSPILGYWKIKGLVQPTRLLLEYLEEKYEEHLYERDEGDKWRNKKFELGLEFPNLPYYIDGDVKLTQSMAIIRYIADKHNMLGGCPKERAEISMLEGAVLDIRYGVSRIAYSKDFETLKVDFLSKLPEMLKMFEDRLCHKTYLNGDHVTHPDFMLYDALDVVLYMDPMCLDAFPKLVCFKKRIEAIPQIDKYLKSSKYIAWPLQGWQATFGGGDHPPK

B1: recombinant CypD (purified, in solution) (enzyme)
chain: not shown
  binding result: no binding
